In the supplement of paper PMC6757056:
± gives the standard deviation of the averaged measurements.

B1: library; a variant is named by its letters at N, in order (parent)
chain: GCUGUCACCGAGAAACUGUGAAGUAUAUCUUAAACCUGGGCACUUAAAAGAUAUAUGGAGUUAGUAGUGCAACCUGCUCGGUCUGAUGAGUCCNNNNNNGGACGAAACAGC

Key:
cyclic di-GMP [1] = variants of: B1; experiment: FACS-Seq fitted mean relative fluorescence mCherry/BFP without ligand (log10 relative fluorescence); HEK293T; ligand: cyclic di-GMP (c-di-GMP-II aptamer); higher = higher reporter protein expression; conditions: ligand present: no
How it was run: (§1)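 Fluorescence figures are normalized fitted normal means of sequenced bin counts. Enriched, lentivirally transduced HEK293T libraries with a ribozyme-switch mCherry reporter and EF1α-BFP were held 48 h with or without ligand, then sorted into 6 mCherry/BFP bins. PCR-amplified, barcoded genomic DNA from each bin was sequenced on MiSeq. Means of log10(mCherry/BFP) were scaled to five spiked-in control ribozymes.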

cyclic di-GMP [2] = variants of: B1; experiment: normalized RNA/DNA level without ligand (relative to sTRSVctl = 100) (log10 (% of sTRSVctl)); HEK293T; ligand: cyclic di-GMP (c-di-GMP-II aptamer); higher = less ribozyme self-cleavage, higher mRNA level; conditions: reporter: mCherry (pCS4076), ligand present: no
How it was run: (§2)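 Ribozyme switch library plasmids with mCherry reporters (eGFP in certain ligand experiments) went into HEK293T cells at 4 µg per 6-well well. Where ligand was used, it was applied 1 h before transfection, and total RNA was extracted with EDTA 72 h later for reverse transcription, amplification, barcoding and sequencing. RNA level is the RNA-to-DNA read ratio normalized to a spiked-in non-cleaving sequence or to the leading sequences, then scaled and log-transformed. Scaling was ×100 with log10, the leading set comprised 25 sequences, and the cutoff was ≥100 DNA reads.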

cyclic di-GMP [3] = variants of: B1; experiment: FACS-Seq fitted mean relative fluorescence mCherry/BFP with ligand (log10 relative fluorescence); HEK293T; ligand: cyclic di-GMP (c-di-GMP-II aptamer); ligand concentration (+) FACS-Seq: 1 mM; higher = higher reporter protein expression; conditions: ligand present: yes
How it was run: as §1

cyclic di-GMP [4] = variants of: B1; experiment: normalized RNA/DNA level with ligand (relative to sTRSVctl = 100) (log10 (% of sTRSVctl)); HEK293T; ligand: cyclic di-GMP (c-di-GMP-II aptamer); ligand concentration (+) RNA-Seq: 1 mM; higher = less ribozyme self-cleavage, higher mRNA level; conditions: reporter: mCherry (pCS4076), ligand present: yes
How it was run: as §2

| Variant | FACS-Seq fitted mean (log10) (cyclic di-GMP [1]) | normalized RNA/DNA level without ligand (log10) (cyclic di-GMP [2]) | FACS-Seq fitted mean (log10) (cyclic di-GMP [3]) | normalized RNA/DNA level with ligand (log10) (cyclic di-GMP [4]) |
| --- | --- | --- | --- | --- |
| GCUGUCACCGAGAAACUGUGAAGUAUAUCUUAAACCUGGGCACUUAAAAGAUAUAUGGAGUUAGUAGUGCAACCUGCUCGGUCUGAUGAGUCCGAUCGAGGACGAAACAGC [GAUCGA] | -0.635 ± 0.0097 | 1.64 ± 0.033 | -0.425 ± 0.16 | 1.78 ± 0.094 |
| GCUGUCACCGAGAAACUGUGAAGUAUAUCUUAAACCUGGGCACUUAAAAGAUAUAUGGAGUUAGUAGUGCAACCUGCUCGGUCUGAUGAGUCCGAGCAGGGACGAAACAGC [GAGCAG] | -0.832 ± 0.019 | 1.9 ± 0.058 | -0.596 ± 0.16 | 1.95 ± 0.13 |
| GCUGUCACCGAGAAACUGUGAAGUAUAUCUUAAACCUGGGCACUUAAAAGAUAUAUGGAGUUAGUAGUGCAACCUGCUCGGUCUGAUGAGUCCCCUCAGGGACGAAACAGC [CCUCAG] | -0.325 ± 0.018 | 1.669 ± 0.003 | -0.0311 ± 0.077 | 1.81 ± 0.14 |
| GCUGUCACCGAGAAACUGUGAAGUAUAUCUUAAACCUGGGCACUUAAAAGAUAUAUGGAGUUAGUAGUGCAACCUGCUCGGUCUGAUGAGUCCGUGAGAGGACGAAACAGC [GUGAGA] | -0.476 ± 0.052 | 1.41 ± 0.058 | -0.164 ± 0.051 | 1.6 ± 0.089 |
| GCUGUCACCGAGAAACUGUGAAGUAUAUCUUAAACCUGGGCACUUAAAAGAUAUAUGGAGUUAGUAGUGCAACCUGCUCGGUCUGAUGAGUCCCAUUAUGGACGAAACAGC [CAUUAU] | -0.4943 ± 0.0018 | 1.54 ± 0.098 | -0.353 ± 0.08 | 1.71 ± 0.1 |
| GCUGUCACCGAGAAACUGUGAAGUAUAUCUUAAACCUGGGCACUUAAAAGAUAUAUGGAGUUAGUAGUGCAACCUGCUCGGUCUGAUGAGUCCCAUUAAGGACGAAACAGC [CAUUAA] | -0.604 ± 0.025 | 1.26 ± 0.11 | -0.31552 ± 2.8e-05 | 1.46 ± 0.12 |
| GCUGUCACCGAGAAACUGUGAAGUAUAUCUUAAACCUGGGCACUUAAAAGAUAUAUGGAGUUAGUAGUGCAACCUGCUCGGUCUGAUGAGUCCAGGCUUGGACGAAACAGC [AGGCUU] | 0.2 ± 0.22 | 1.655 ± 0.015 | 0.371 ± 0.029 | 1.85 ± 0.1 |
| GCUGUCACCGAGAAACUGUGAAGUAUAUCUUAAACCUGGGCACUUAAAAGAUAUAUGGAGUUAGUAGUGCAACCUGCUCGGUCUGAUGAGUCCCCUAUAGGACGAAACAGC [CCUAUA] | -0.492 ± 0.012 | 1.43 ± 0.12 | -0.121 ± 0.047 | 1.65 ± 0.067 |
| GCUGUCACCGAGAAACUGUGAAGUAUAUCUUAAACCUGGGCACUUAAAAGAUAUAUGGAGUUAGUAGUGCAACCUGCUCGGUCUGAUGAGUCCAUAACGGGACGAAACAGC [AUAACG] | -0.0695 ± 0.081 | 1.58 ± 0.027 | 0.0722 ± 0.12 | 1.76 ± 0.12 |
| GCUGUCACCGAGAAACUGUGAAGUAUAUCUUAAACCUGGGCACUUAAAAGAUAUAUGGAGUUAGUAGUGCAACCUGCUCGGUCUGAUGAGUCCGAUACAGGACGAAACAGC [GAUACA] | -0.276 ± 0.023 | 1.65 ± 0.032 | -0.124 ± 0.088 | 1.8 ± 0.11 |
| GCUGUCACCGAGAAACUGUGAAGUAUAUCUUAAACCUGGGCACUUAAAAGAUAUAUGGAGUUAGUAGUGCAACCUGCUCGGUCUGAUGAGUCCCAAGUUGGACGAAACAGC [CAAGUU] | -0.164 ± 0.058 | 1.71 ± 0.027 | 0.078 ± 0.065 | 1.86 ± 0.12 |
| GCUGUCACCGAGAAACUGUGAAGUAUAUCUUAAACCUGGGCACUUAAAAGAUAUAUGGAGUUAGUAGUGCAACCUGCUCGGUCUGAUGAGUCCAUGUAUGGACGAAACAGC [AUGUAU] | -0.148 ± 0.067 | 1.61 ± 0.036 | 0.196 ± 0.014 | 1.82 ± 0.052 |
| GCUGUCACCGAGAAACUGUGAAGUAUAUCUUAAACCUGGGCACUUAAAAGAUAUAUGGAGUUAGUAGUGCAACCUGCUCGGUCUGAUGAGUCCGUCCUGGGACGAAACAGC [GUCCUG] | -0.102 ± 0.019 | 1.68 ± 0.022 | 0.19 ± 0.09 | 1.83 ± 0.14 |
